Data taken from patent US8697366B2, “Anti-cancer drug screening method using RORα” (Seoul National University Industry Foundation, priority 2009, dated 2014).
“Also recorded” adds a separate entry of the source.

Tests used:
Assay type in all cases: cell-based
PKCα = assay: Immunoblot against anti-phospho-PKCα antibody after Wnt5a treatment; details: anti-phospho-PKCα antibody (active form)
Description: (§1) (A) Treatment of Wnt5a increased phosphorylated RORα and PKCα but decreased cyclin D1 expression as assessed by immunoblot analysis against each antibody.

cyclin D1 = assay: Immunoblot of cyclin D1 expression in colon cancer cells
Description: as §1

cyclin D1 promoter = assay: ChIP assay on the cyclin D1 promoter in HCT116 cells
Method: (A) The specificity of the antibody raised against phosphorylated RORαS35 peptide (SEQ ID NO:18) was assessed by dot blot analysis. (B) Treatment of TPA increased phophorylated RORα on S35 site as assessed by immunoprecipitation with anti-phospho-RORαS35 antibody. […] (D) Treatment of Go6976, a PKCα inhibitor, abolished TPA-dependent phosphorylation of RORα as assessed by immonoblotting with anti-phospho-RORαS35 antibody. (E) HCT116 cells were transfected with Flag-RORα WT, S35D, or S35A, and the cell extracts were immunoprecipitated with anti-Flag antibody followed by immunoblotting against anti-β-catenin antibody. (F) Coimmunoprecipitation assay of β-catenin with either RORαWT or S35A in HCT116 cells after treatment with TPA in the absence or presence of Go6976. (G) ChIP analysis on the cyclin D1 promoter after transfection with Flag-RORαWT, S35A, or S35D in HCT116 cells. (H) ChIP analysis on the cyclin D1 promoter in HCT116 cells after TPA treatment for indicated time. (I) ChIP assay was performed on the cyclin D1 promoter in the absence or presence of siRNA against PKCα with treatment of TPA for 90 min. (J) Real-time quantitative RT-PCR analysis of the cyclin D1 transcript in HCT116 cells in the presence of TPA for indicated time. (K) Knockdown effect of siRNA against RORα or PKCα was assessed in the expression of the cyclin D1 transcript in HCT116 cells.
(B) Cyclin D1 transcript was measured after introducing siRNAs against RORα or PKCα in the presence of Wnt5a in HCT116 cells. (C) Real-time quantitative RTPCR analysis of the cyclin D1 transcript in HCT116 cells after introducing RORα, S35A, or S35D in the presence of Wnt5a. (D) […] on the cyclin D1 promoter with treatment of either TPA or Wnt5a in HCT116 cells. Occupancy of the cyclin D1 promoter by phosphorylated RORα, β-catenin, RNA polymerase II, H3K9me2, H3K4me2, CBP, pCAF, p300, or SMRT was indicated. (E) Transwell cell migration assay for RORα, RORαS35A, or RORαS35D-expressing HCT116 cells with treatment of Wnt5a. Values are represented as mean±s.d. for three independent experiments. (F) The anchorage-independent growth of HCT116 cells expressing RORα, RORαS35A, or RORαS35D in soft agar. Values are expressed as mean±SEM for two experiments in 6 place wells. Colonies were counted in 10 different fields and total colony number/well was calculated. Representative image is shown for each group.
The ChIP, two-step ChIP, and shRNA-coupled ChIP assays were conducted as previously described (Baek et al., 2002; Kim et al., 2005).

[1] = system: HCT116 colon cancer cells; assay: Transwell cell migration assay; details: Wnt5a 100 ng/ml pretreatment 2 hr, compared to non-treated cells
Method: HCT116 cells stably expressing RORα, RORαS35A, or RORαS35D were used in Transwell cell migration assays along with control cells. Transwell cell migration assay was conducted as previously described (Kim et al., 2006). Cultured cells were pretreated with Wnt5a (100 ng/ml) for 2 hr, and 2.5×10^4HCT116 cells were loaded onto the top of a 24-well Transwell chamber assay plate (BD Biosciences). Conditioned McCoy's 5A medium containing 15% fetal bovine serum was added to the bottom chamber as a chemoattractant. After 22 hr incubation, the cells that had migrated to the lower chamber of the filter were fixed with 100% methanol, stained with DAPI, and quantified by counting the total number of cells in four different fields. All experimental studies were performed according to the manufacturer's protocols. Values are expressed as means±standard deviations for at least three independent experiments.

RORα = assay: Phosphorylation of RORα in HCT116 cells (immunoprecipitation / immunoblot with anti-phospho-Ser or anti-phospho-RORαS35 antibody); details: HCT116 cells, treatment alone
Method: (A) Schematic representation of RORα showing the location of the N-terminal domain (NTD), the DNA-binding domain (DBD), the hinge region, the ligand-binding domain (LBD), and the AF-2 domain. […] HEK293 cells were cotransfected with plasmids expressing each His-tagged RORα deletion construct and β-catenin. Whole cell extracts (left panel) and Ni^+-NTA-agarose pulldown materials (right panel) were analyzed by immunoblotting against anti-β-catenin IgG or anti-Xpress IgG. (C) Illustration of the structure of deletion fragments of RORα(SEQ ID NO:17). (D) Interaction of each RORα deletion construct with HisMax-β-catenin was assessed by Ni^+-NTA-agarose pulldown assay. […] The phosphorylated peptide samples were analyzed by LC-MS analysis. […] Immunoprecipitation assay was conducted with anti-Flag antibody, and the phosphorylated RORα was detected by immunoblot analysis with anti-phospho-Ser antibody. […] The reaction samples were subjected to 12% SDSPAGE, and phosphorylated RORα was detected by autoradiography. […] The fluorescence-conjugated secondary antibody was visualized using fluorescence microscopy, and nuclear staining with DAPI was shown.
(A) The specificity of the antibody raised against phosphorylated RORαS35 peptide (SEQ ID NO:18) was assessed by dot blot analysis. (B) Treatment of TPA increased phophorylated RORα on S35 site as assessed by immunoprecipitation with anti-phospho-RORαS35 antibody. […]

cyclin D1 transcript = assay: Real-time quantitative RT-PCR of the cyclin D1 transcript in HCT116 cells
Method: The abundance of mRNA was detected by an ABI prism 7300 system with SYBR Green (molecular probes). Primer pairs were designed to amplify 90-150 bp mRNA specific fragments, and confirmed to be unique products by melting curve analysis. The PCR conditions were 95° C. (5 min) and 40 cycles of 95° C. (30 s), 57° C. (30 s), and 72° C. (30 s).
The quantity of mRNA was calculated using the ΔΔCt method and normalized by using primers to detect β-actin or HPRT. All reactions were performed in triplicates.

B1: Wnt5a: a noncanonical Wnt ligand (protein, UniProt P41221 62-380, looked up)
Protein Wnt-5a: IIGAQPLCSQLAGLSQGQKKLCHLYQDHMQYIGEGAKTGIKECQYQFRHRRWNCSTVDNTSVFGRVMQIGSRETAFTYAVSAAGVVNAMSRACREGELSTCGCSRAARPKDLPRDWLWGGCGDNIDYGYRFAKEFVDARERERIHAKGSYESARILMNLHNNEAGRRTVYNLADVACKCHGVSGSCSLKTCWLQLADFRKVGDALKEKYDSAAAMRLNSRGKLVQVNSRFNSPTTQDLVYIDPSPDYCVRNESTGSLGTQGRLCNKTSEGMDGCELMCCGRGYDQFKTVQTERCHCKFHWCCYVKCKKCTEIVDQFVCK
PKCα
  phosphorylation of PKCα: increased phosphorylation
Cyclin D1
  cyclin D1 expression: downregulation; also recorded: decreased
Cyclin D1 promoter
  RNA polymerase II recruitment on the cyclin D1 promoter: decreased
  methylation of histone H3K9 on the cyclin D1 promoter: increased methylation
  recruitment of CBP, p300, and pCAF coactivators to the cyclin D1 promoter: significantly decreased
Cyclin D1 promoter; anti-phospho-RORαS35 IgG
  recruitment of phosphorylated RORα on the cyclin D1 promoter: increased the recruitment
[1]
  migration of HCT116 colon cancer cells: attenuated
RORα
  phosphorylation of RORα: increased phosphorylation
Cyclin D1 transcript
  cyclin D1 transcript: reduced
